From paper PMC5087277 (ACS chemical biology, 2016)
Values belong to the compound of their own block, whether it stands above or below them.

Legend:
[1] = molecular target: ClpXP (sc6ClpXΔN-bio with ClpP; ATP site on ClpX) (Escherichia coli, UniProt P0A6H1, C169S/K408E); experiment: bio-layer interferometry, ClpP association to immobilised ClpX; format: binding
[2] = tested on: Nc1ncnc2c1ncn2[C@@H]1O[C@H](COP(=O)(O)OP(=O)(O)OP(=O)(O)O)[C@@H](O)[C@H]1O; experiment: coupled ATP hydrolysis assay; format: biochemical, Escherichia coli; details: pH 7.5
[3] = tested on: ^sc6ClpX^ΔN-bio single-chain ClpX^ΔN pseudohexamer; experiment: BLI
[4] = molecular target: ^sc6ClpX^ΔN-bio single-chain ClpX^ΔN pseudohexamer (E. coli); experiment: BLI
[5] = excess ClpP (1 μM), Hill n = 2.2, 10 mM MgCl2, 30 °C
[6] = no ClpP, Hill n = 2.4, 10 mM MgCl2, 30 °C

Compound: Nc1ncnc2c1ncn2[C@@H]1O[C@H](COP(=O)(O)OP(=O)(O)OP(=O)(O)O)[C@@H](O)[C@H]1O [ATP]
- EC50 [1]: 100 ± 2 µM

Compound: ClpXP (sc6ClpXΔN-bio with ClpP; ATP site on ClpX) (Escherichia coli K-12; C169S/K408E)
- K0.5 [2, 5]: 29 µM
- kcat [2, 5]: 41 min^−1 enz^−1

Compound: E. coli ClpP (C91V, C113A)
- kobs of association at 200 nM ClpP, maximal fitted value against ATP [3]: 0.138 ± 0.001 s^−1 for kobs
- maximal rate of kobs-1 (double-exponential association, amplitude ~70%) [3]: the maximal rate was 22 ± 7 s^−1
- maximal rate of kobs-2 (double-exponential association, amplitude ~30%) [3]: the maximal rate was 0.54 ± 0.2 s^−1

- Kd [4]: < 0.0001 µM
- dissociation rate constant in the absence of nucleotide or presence of ADP [4]: < 0.07 s⁻¹
- fold more kinetically stable in 7:1 ADP:ATP against ADP alone [4]: 100 fold
- half-life of ADEP-2B-induced dissociation [4]: 1 s
- half-life of dissociation in ADP (complex formed with ATP) [4]: 5 s
- half-life of dissociation in ADP (complex formed with ATPγS) [4]: 20 s
- half-maximal binding, total ClpP concentration [4]: 160 pM
- maximum dissociation rate constant with ADEP-2B (hyperbolic fit) [4]: 2 s⁻¹
Compound: E. coli ClpP (C91V, C113A) (enzyme)

Compound: sc6ClpXΔN-bio (Escherichia coli K-12; C169S/K408E)
- K0.5 [2, 6]: 42 ± 3 µM
- kcat [2, 6]: 73 min^−1 enz^−1
